# Measured values as given in patent US8252303B2, “Injectable depot compositions and uses thereof” (Durect Corporation, priority 2002, dated 2012).
# Test: Preliminary stability of PDGF preformulations in the gel vehicle (SEC and rpHPLC)
# Type: physicochemical
# Details: 5° C. for 1 day, Bulk PDGF as reference
# Method: All lyophilized protein formulations as listed in Tables 8 and 9, were mixed into a gel vehicle with the composition of PLGA RG502/Benzyl Benzoate (BB)/benzyl alcohol (BA) of 40/45/15 with the loading of the protein formulation about 10 wt %. After being stored at 5° C. for 1 day, the mixtures were extracted with an organic solvent mixture of methylene chloride and acetone (ratio of 50/50) as described in the example 15 above. The purity of the PDGF-BB was analyzed by both reverse phase HPLC (rpHPLC) and size exclusion chromatography (SEC). In general, no distinguishable degradation of the PDGF-BB was found in the PDGF-BB formulation incorporated with the excipients as described in the Example 18 and mixed with the gel vehicle of the present invention.
substance,measurement,setting,value
"Bulk PDGF: PDGF-BB bulk solution, i.e., aqueous solution of PDGF in acetate buffer",% PDGF dimmer by SEC,Table 8 (succinate),0.73%
same,% other peaks by rp-HPLC,Table 8 (succinate),0.0%
same,% peak at RRT = 1.10 by rp-HPLC,Table 8 (succinate),1.2%
same,% PDGF dimer by SEC,Table 9 (histidine),0.73%
same,% other peaks by rp-HPLC,Table 9 (histidine),0.0%
same,% peak at RRT = 1.10 by rp-HPLC,Table 9 (histidine),1.2%
